Test results from the RNAGym collection of RNA variant scans (doi:10.7554/elife.80360).

B1: HDV Ribozyme (parent)
chain: GGCCGGCAUGGUCCCAGCCUCCUCGCUGGCGCCGGCUGGGCAACAUUCCGAGGGGACCGUCCCCUCGGUAAUGGCGAAUGGGACCCA

Variants of: B1
Experiment: self-cleavage, relative activity (ratio to wild type); higher = more cleavage; co-transcriptional

In order of rising self-cleavage:
1. G29C G50C  0
2. G2C C21A  0
3. G28A U37G  0
4. G1C A43G  0
5. C14G C22A  0
6. C4G C32G  0
7. G2U G31C  0.0155
8. G73C G81C  0.0292
9. G29A A71G  0.032
10. C3A G74A  0.0326
11. C15G G29A  0.0339
12. G17A C32G  0.0415
13. U20A G35U  0.0437
14. C19U G34A  0.0468
15. U9A C32G  0.0489
16. C3G U20C  0.0489
17. C24G A45U  0.0504
18. G1C G5A  0.0536
19. U23C U37A  0.0536
20. C13U C21U  0.0563
21. C14A C32G  0.0573
22. C3G C30G  0.0594
23. G34A C86A  0.0683
24. G28U A70G  0.0707
25. C21U U27G  0.0755
26. C19A U79A  0.0773
27. G6C U27G  0.0791
28. C14G G38A  0.0831
29. G2C C66A  0.0913
30. C36A C75U  0.0963
31. C36A G59C  0.0978
32. C36U U72C  0.102
33. G17A G38A  0.104
34. A42C U72C  0.107
35. C24U G82A  0.107
36. G1A G17C  0.107
37. G11C G34A  0.108
38. G38A U60A  0.117
39. U20A C62A  0.119
40. C49G A77C  0.119
41. G25U A42G  0.119
42. C22A C30U  0.121
43. C36A U46G  0.123
44. C24G G35A  0.124
45. G28A G50U  0.132
46. G6A C15G  0.133
47. C32G C49G  0.135
48. C30U C44G  0.135
49. A78U U79G  0.138
50. G1C U46A  0.138
51. C15A C75U  0.141
52. G74A C75U  0.141
53. G1A C33G  0.148
54. G39U G82U  0.155
55. G25C C84G  0.158
56. C62G A83U  0.17
57. C24G G40U  0.17
58. C18G A71C  0.172
59. G29U U65A  0.175
60. G25U A78G  0.185
61. C49A G80U  0.188
62. G11C G40U  0.189
63. C18U U72C  0.193
64. G5C G11C  0.196
65. G5U C32G  0.196
66. U20C U60G  0.199
67. U9G C75A  0.201
68. G39U G73U  0.211
69. C33A U79G  0.214
70. G50C G82U  0.217
71. U27C C32G  0.217
72. G6C G17U  0.237
73. A8C G40C  0.242
74. A56G G73U  0.249
75. U23G G73A  0.259
76. G74A A83U  0.272
77. G6C A77C  0.277
78. C66U A83C  0.298
79. G50C A83C  0.317
80. G29A C58A  0.318
81. C15G U79C  0.342
82. A43G C57G  0.356
83. C48G G54A  0.372
84. C49U G81A  0.378
85. G6U A16G  0.388
86. A42C U69C  0.399
87. G50C G73A  0.407
88. C33U G74U  0.41
89. G11U G50A  0.415
90. C63G G73A  0.424
91. U69A G81A  0.425
92. C36U U72G  0.431
93. G1A G6A  0.437
94. G39A G68C  0.441
95. G54C G82U  0.448
96. C66U G74A  0.451
97. C7U U65A  0.475
98. G52C A83C  0.475
99. C4G G68C  0.475
100. G35U G55A  0.477
101. G35A G59A  0.494
102. A45C A70U  0.508
103. A45G G74A  0.517
104. G40U G53C  0.519
105. C3G G68C  0.531
106. A43U C61A  0.532
107. G53U G67C  0.534
108. C26G G34A  0.54
109. G6U C48A  0.542
110. A16C C64G  0.554
111. G11U G52U  0.561
112. C7U A8G  0.582
113. C7A C49U  0.582
114. C24A A71G  0.61
115. G17U C49A  0.614
116. G6A C57G  0.643
117. A16U U69C  0.643
118. U65A A70C  0.643
119. U23G C85G  0.643
120. G35A G59U  0.646
121. G54A G67U  0.657
122. U27G A51U  0.677
123. C26U A42U  0.682
124. G10C C24A  0.692
125. C44A A70G  0.703
126. C30U G52U  0.709
127. C4U C84A  0.712
128. C30U C61A  0.718
129. C44A C85U  0.727
130. G55A A83C  0.731
131. G10U G54A  0.735
132. U9G C15G  0.739
133. G67C A71G  0.743
134. C3G A51G  0.746
135. C61U A71C  0.746
136. G50A C84U  0.754
137. A51U C62A  0.759
138. U23A U27G  0.762
139. G10U G53A  0.769
140. C41G A87G  0.772
141. C15G A70C  0.776
142. A16G C64A  0.782
143. U12G C85U  0.787
144. C44U A45U  0.787
145. G52C C58A  0.796
146. G50U U60G  0.831
147. A16C C84G  0.87
148. C26U A51U  0.901
149. C57G G67A  0.909
150. G40A U60G  0.916
151. C49A G67U  0.945
152. C26U C30U  0.967
153. U23C G67C  0.969
154. U47C A51G  0.969
155. C7U U9G  0.997
156. G52C A87U  1
157. A51G A56U  1
158. A16U C85G  1.03
159. G1C G2C  1.06
160. G55A C61G  1.06
161. C26U C66A  1.09
162. C57G C63G  1.09
163. C13U C86U  1.1
164. A16U C61A  1.11
165. U9A A16U  1.19
166. C7U C57G  1.2
167. U46C G76U  1.23
